Reference: PMC5007201

Target: human dynein heavy chain with an N-terminal GFP, within the GFP-dynein complex (human) (UniProt Q14204)
Test: single-molecule photobleaching step counting

stoichiometry N: 2
Substance: human dynein heavy chain with an N-terminal GFP, within the GFP-dynein complex, Q14204 1-4646
